Measurements reported in paper PMC7904085.
pKd: −log10 of the molar value.

Biological target: Protein A/G
Test: single-molecule TIRF microscopy, saturation curve

- pKd: 8.34
Substance: Mouse monoclonal anti-V5 tag antibody [SV5-Pk1]
